26 variants from the supplement of paper PMC7125110 can be followed below.

± gives the standard error. Fewer inactive variants are shown than the library holds. Where only a bound is given, the exact number is not on record here.

The chains are these.
B1: glmS ribozyme (parent)
chain: AUAAAAGCGCCAGAACUACAGAAAUGUAGUUGACGAGGAGGAGGUUUAUCGAAUUUUCGGCGGAUGCCUCCAAA

Common to all, as to conditions: with glucosamine-6-phosphate
In data set [1] the parent is B1. In words: self-cleavage kobs at 640 uM GlcN6P; higher = faster cleavage; RNA array. In short, it runs like this: (§1)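 Barcoded ribozyme variants on sequenced MiSeq chips were transcribed in situ by E. coli RNA polymerase and followed at 37 °C through a hybridised Cy3 probe. Glucosamine-6-phosphate at 40 μM to 10 mM in HEPES/KCl/Mg(OAc)2 buffer was flowed in, and tiles were imaged over ~14 h. Signals were normalised to baseline and to non-cleaving reference variants, and per-tile medians were fit to one- or two-exponential decays to give kobs. Weighted Michaelis–Menten fits across concentrations gave kcat and KM.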

Variants of B1 are the subject of data set [2]. In words: self-cleavage kobs at 2500 uM GlcN6P; higher = faster cleavage; RNA array. In short, it runs like this: as §1
Data set [3] covers variants of B1. Kind of data set: self-cleavage kobs at 160 uM GlcN6P; higher = faster cleavage; RNA array. In short, it runs like this: as §1
Variants of B1 are the subject of data set [4]. Kind of data set: self-cleavage kobs at 10000 uM GlcN6P; higher = faster cleavage; RNA array. In short, it runs like this:
as §1

For the variant G35A G43C C68A, the “self-cleavage kobs at 640 uM GlcN6P” value in the data set with glucosamine-6-phosphate [1] was under 1e-05 s⁻¹. In addition, the “self-cleavage kobs at 2500 uM GlcN6P” value with glucosamine-6-phosphate [2] was under 1e-05 s⁻¹.
Consider A6U C10A U30G A36G A42C U49C U65A, for which the “self-cleavage kobs at 160 uM GlcN6P” value with glucosamine-6-phosphate [3] is under 1e-05 s⁻¹. In addition, the “self-cleavage kobs at 640 uM GlcN6P” value with glucosamine-6-phosphate [1] was under 1e-05 s⁻¹. The “self-cleavage kobs at 2500 uM GlcN6P” value with glucosamine-6-phosphate [2] was under 1e-05 s⁻¹.
With A36G G38U C61U G66U, the “self-cleavage kobs at 160 uM GlcN6P” value with glucosamine-6-phosphate [3] is under 1e-05 s⁻¹.
In the case of A12U G35C, the “self-cleavage kobs at 160 uM GlcN6P” value with glucosamine-6-phosphate [3] was under 1e-05 s⁻¹. The “self-cleavage kobs at 640 uM GlcN6P” value with glucosamine-6-phosphate [1] is under 1e-05 s⁻¹. Also, the “self-cleavage kobs at 10000 uM GlcN6P” value in the data set with glucosamine-6-phosphate [4] was under 1e-05 s⁻¹.
As to G35C G62U C67G C70U, the “self-cleavage kobs at 160 uM GlcN6P” value in the data set with glucosamine-6-phosphate [3] is under 1e-05 s⁻¹.
On to A6U U31A G43U, for which, in the data set with glucosamine-6-phosphate [3], the “self-cleavage kobs at 160 uM GlcN6P” value is under 1e-05 s⁻¹. In addition, the “self-cleavage kobs at 640 uM GlcN6P” value with glucosamine-6-phosphate [1] was under 1e-05 s⁻¹. In the data set with glucosamine-6-phosphate [2], the “self-cleavage kobs at 2500 uM GlcN6P” value was under 1e-05 s⁻¹.
In the case of A48G G62C, the “self-cleavage kobs at 160 uM GlcN6P” value in the data set with glucosamine-6-phosphate [3] is under 1e-05 s⁻¹. Besides, in the data set with glucosamine-6-phosphate [4], the “self-cleavage kobs at 10000 uM GlcN6P” value was under 1e-05 s⁻¹.
On to A14G A33C C70A, for which the “self-cleavage kobs at 160 uM GlcN6P” value in the data set with glucosamine-6-phosphate [3] is under 1e-05 s⁻¹.
A15G U57A: in the data set with glucosamine-6-phosphate [1], the “self-cleavage kobs at 640 uM GlcN6P” value was 0.000105 ± 2e-05 s⁻¹. Moreover, in the data set with glucosamine-6-phosphate [2], the “self-cleavage kobs at 2500 uM GlcN6P” value turned out to be 0.000107 ± 2.8e-05 s⁻¹. For the same variant, the “self-cleavage kobs at 10000 uM GlcN6P” value with glucosamine-6-phosphate [4] was 0.000392 ± 5.3e-05 s⁻¹.
As to G9A C34A, the “self-cleavage kobs at 160 uM GlcN6P” value with glucosamine-6-phosphate [3] is under 1e-05 s⁻¹. Besides, in the data set with glucosamine-6-phosphate [1], the “self-cleavage kobs at 640 uM GlcN6P” value was under 1e-05 s⁻¹. In addition, the “self-cleavage kobs at 2500 uM GlcN6P” value with glucosamine-6-phosphate [2] is under 1e-05 s⁻¹. In the data set with glucosamine-6-phosphate [4], the “self-cleavage kobs at 10000 uM GlcN6P” value is under 1e-05 s⁻¹.
Take G44C U54A C68U: in the data set with glucosamine-6-phosphate [3], the “self-cleavage kobs at 160 uM GlcN6P” value is under 1e-05 s⁻¹.
For C10A G35C G51U, the “self-cleavage kobs at 160 uM GlcN6P” value with glucosamine-6-phosphate [3] was under 1e-05 s⁻¹. Besides, the “self-cleavage kobs at 640 uM GlcN6P” value with glucosamine-6-phosphate [1] is under 1e-05 s⁻¹. For the same variant, in the data set with glucosamine-6-phosphate [2], the “self-cleavage kobs at 2500 uM GlcN6P” value was under 1e-05 s⁻¹.
For U31C G40A A53U, the “self-cleavage kobs at 160 uM GlcN6P” value with glucosamine-6-phosphate [3] was determined as 9.65e-05 ± 3.1e-05 s⁻¹. In addition, the “self-cleavage kobs at 640 uM GlcN6P” value in the data set with glucosamine-6-phosphate [1] worked out at 7.74e-05 ± 1.7e-05 s⁻¹.
A14C G38U G44A G63U C67U: the “self-cleavage kobs at 640 uM GlcN6P” value with glucosamine-6-phosphate [1] was under 1e-05 s⁻¹.
Turning to G38U G44U C50A A64U, the “self-cleavage kobs at 160 uM GlcN6P” value in the data set with glucosamine-6-phosphate [3] is under 1e-05 s⁻¹.
With C8G G51C C68G, the “self-cleavage kobs at 160 uM GlcN6P” value with glucosamine-6-phosphate [3] was under 1e-05 s⁻¹. In addition, the “self-cleavage kobs at 640 uM GlcN6P” value with glucosamine-6-phosphate [1] was under 1e-05 s⁻¹.
Turning to A15C A33C U55C, in the data set with glucosamine-6-phosphate [3], the “self-cleavage kobs at 160 uM GlcN6P” value was under 1e-05 s⁻¹. Further, in the data set with glucosamine-6-phosphate [1], the “self-cleavage kobs at 640 uM GlcN6P” value was under 1e-05 s⁻¹. The “self-cleavage kobs at 2500 uM GlcN6P” value with glucosamine-6-phosphate [2] is under 1e-05 s⁻¹.
As to G41U C50U, the “self-cleavage kobs at 160 uM GlcN6P” value in the data set with glucosamine-6-phosphate [3] was under 1e-05 s⁻¹. In addition, the “self-cleavage kobs at 640 uM GlcN6P” value with glucosamine-6-phosphate [1] was under 1e-05 s⁻¹. In addition, the “self-cleavage kobs at 2500 uM GlcN6P” value with glucosamine-6-phosphate [2] is under 1e-05 s⁻¹. Further, the “self-cleavage kobs at 10000 uM GlcN6P” value with glucosamine-6-phosphate [4] was under 1e-05 s⁻¹.
As for A14G G29C C61U C71U, the “self-cleavage kobs at 160 uM GlcN6P” value with glucosamine-6-phosphate [3] was under 1e-05 s⁻¹. Further, in the data set with glucosamine-6-phosphate [1], the “self-cleavage kobs at 640 uM GlcN6P” value was under 1e-05 s⁻¹. Further, the “self-cleavage kobs at 10000 uM GlcN6P” value with glucosamine-6-phosphate [4] is under 1e-05 s⁻¹.
Turning to G35U G43A, in the data set with glucosamine-6-phosphate [3], the “self-cleavage kobs at 160 uM GlcN6P” value is under 1e-05 s⁻¹. Moreover, the “self-cleavage kobs at 2500 uM GlcN6P” value with glucosamine-6-phosphate [2] is under 1e-05 s⁻¹. Moreover, the “self-cleavage kobs at 10000 uM GlcN6P” value with glucosamine-6-phosphate [4] is under 1e-05 s⁻¹.
Turning to A33C A64U C70A, the “self-cleavage kobs at 160 uM GlcN6P” value with glucosamine-6-phosphate [3] was under 1e-05 s⁻¹. Further, the “self-cleavage kobs at 2500 uM GlcN6P” value in the data set with glucosamine-6-phosphate [2] is under 1e-05 s⁻¹.
For A36C G38A G44C C67U C68G, the “self-cleavage kobs at 160 uM GlcN6P” value with glucosamine-6-phosphate [3] is under 1e-05 s⁻¹. In addition, the “self-cleavage kobs at 640 uM GlcN6P” value with glucosamine-6-phosphate [1] is under 1e-05 s⁻¹. The “self-cleavage kobs at 2500 uM GlcN6P” value with glucosamine-6-phosphate [2] was under 1e-05 s⁻¹.
Take A15C C34A G44U: the “self-cleavage kobs at 160 uM GlcN6P” value in the data set with glucosamine-6-phosphate [3] is under 1e-05 s⁻¹. Moreover, in the data set with glucosamine-6-phosphate [1], the “self-cleavage kobs at 640 uM GlcN6P” value is under 1e-05 s⁻¹. In the data set with glucosamine-6-phosphate [2], the “self-cleavage kobs at 2500 uM GlcN6P” value is under 1e-05 s⁻¹.
As for C11U U31C A39U A52C A64G, the “self-cleavage kobs at 160 uM GlcN6P” value with glucosamine-6-phosphate [3] was under 1e-05 s⁻¹. Also, the “self-cleavage kobs at 2500 uM GlcN6P” value with glucosamine-6-phosphate [2] was under 1e-05 s⁻¹.
As to G7A A33U G44U, the “self-cleavage kobs at 160 uM GlcN6P” value with glucosamine-6-phosphate [3] was under 1e-05 s⁻¹. The “self-cleavage kobs at 2500 uM GlcN6P” value in the data set with glucosamine-6-phosphate [2] is under 1e-05 s⁻¹.
In the case of A42U G44C A52C, the “self-cleavage kobs at 160 uM GlcN6P” value with glucosamine-6-phosphate [3] was under 1e-05 s⁻¹. In addition, the “self-cleavage kobs at 640 uM GlcN6P” value in the data set with glucosamine-6-phosphate [1] is under 1e-05 s⁻¹.
